Test results from patent US5179196A, “Purification of proteins employing CTAP-III fusions” (SRI International, priority 1989, dated 1993).
Where two headings read alike, the source gives them in different places.

B1: CTAP-III(Leu21): analog of CTAP-III in which the methionine at position 21 is replaced with leucine (protein, UniProt P02775 44-128, looked up, variant M21L)
Connective tissue-activating …: NLAKGKEESLDSDLYAELRCLCIKTTSGIHPKNIQSLEVIGKGTHCNQVEVIATLKDGRKICLDPDAPRIKKIVQKKLAGDESAD
modifications: Connective tissue-activating peptide III

Legend:
thrombin [1] = biological target: T1, thrombin (Homo sapiens, UniProt P00734); assay: Specific activity of recombinant hirudin (antithrombin activity), applicant's hirudin; format: biochemical
Source text: There are a number of activity assays developed to determine the quality of hirudin preparations and for use in quantitating hirudin in various biochemical and pharmacological experiments. Two of these methods have been refined herein and may be used routinely and reproducibly. The first, a chromogenic substrate assay measures the inhibition by hirudin of thrombin's ability to hydrolyze small synthetic peptide substrates. The second, a fibrin-clotting assay, measures the kinetics of clot formation, using either human plasma or purified fibrinogen as the thrombin substrate.
In the chromogenic assay, antithrombin activity is achieved by measuring the inhibition of release of p-nitroaniline from the chromogenic substrate H-D-phenylalanyl-L-pipecolyl-L-arginine-p-nitroanilide dihydrochloride (S-2238, supplied by Kabivitrum) by thrombin in the presence of hirudin. Thrombin concentration is 2 nM (typically 0.12 NIH units/ml), and hirudin can be assayed reproducibly at an approximate concentration range of 0.3 to 1 nM, using 296 uM substrate in 50 mM Tris buffer, 100 mM NaCl, pH 7.8, and 0.1% polyethylene glycol-6000 (PEG). PEG is included to inhibit binding of thrombin to the plastic surface of the microplate or cuvette; for the same reason, reaction vessels are pretreated with 1% PEG-20,000 prior to assay.
Hirudin inhibits the thrombin-mediated conversion of fibrinogen into a fibrin clot. […]

Isoelectric point (pI) = format: physicochemical
thrombin [2] = biological target: T1, thrombin; settings: E. coli, cited from earlier work
[3] = system: B16/F10 cells (murine melanoma); assay: Cell adhesion assay, tumor cells binding to peptide-coated wells; format: cell-based; settings: summary of Table 2
Source text: One of the assays used to measure the activity of the laminin B1 peptide measures the binding of tumor cells containing the laminin receptor to the peptide immobilized on the surface of a culture tissue (Graf et al (1987) Cell 48:989-996). This assay is a convenient and sensitive method for routine measurement of laminin cell receptor binding and therefore a good indicator of laminin antagonist activity.
The laminin B1 -40 peptide, along with the previously described YIGSR and CDPGYIGSR peptides, were dissolved in phosphate-buffered saline (PBS) and were coated onto Falcon #3915 polystyrene 96-well plates at 37° C. for 60 min. The peptide solutions were removed, and the wells were washed twice with PBS. Non-specific cell binding was prevented by adding 200 ul 0.1% bovine serum albumin (BSA) (Sigma #4965) in PBS to the wells and incubating for 60 min at 37° C. The BSA was removed by washing twice with PBS. […] The optical density of the solutions was read on a Molecular Devices Corporation plate reader at a wavelength between 590 nm and 405 nm. Extrapolation of optical density to number of cells bound was done by comparison of readings to a standard curve obtained by incubating various numbers of cells in microtiter plate wells for 5 h (to allow firm attachment but no significant dividing), and washing and staining as described above.

Molecule | Sp. Act. (thrombin [1]; AT (antithrombin units), E. coli, pNP6ΔRI-CRM/HIR, intracellular (Example 4)) | specific activity (thrombin [1]; purified hirudin HV-1 standard) | pI (isoelectric point) (Isoelectric point (pI)) | Sp. Act. (thrombin [2]; pMF1, lacUV5/tac, intracellular) | Sp. Act. (thrombin [2]; IU, international units, pHIR20 lam-PL, intracellular) [U/mg] | Sp. Act. (thrombin [2]; IU, international units, pHIR21 tac, periplasmic secretion) [U/mg] | binding of metastatic tumor cells compared with YIGSR or CDPGYIGSR (in words) [3]
HV-1: hirudin variant 1, thrombin inhibitor of Hirudo medicinalis, produced from a synthetic DNA | 11,300 U/mg | greater than 10 antithrombin units per ug | 3.8 | 8,500 U/mg | 500 | 560 | 
Pro1 -Cys Pro Asp Gly Pro Asp Ser Gly Arg Gln Phe Ala Arg Ser Cys Tyr Gln Asp Pro Val Thr Leu Gln Leu Ala X Val Cys Asp Pro Gly Tyr Ile Gly Ser Arg Cys Asp Asp-Y [LamB1 -40] |  |  | 3.65 |  |  |  | binds metastatic tumor cells more effectively
B1 |  |  | approximately 7.8 |  |  |  | 
